Data on 1 molecule can be found in patent US12492373B2, “Production method for nerve tissue” (Racthera Co., Ltd., priority 2014, dated 2025).

Experiment [1] deals with human iPS cells (Ff-I01 strain). Put plainly: Immunostaining of aggregate sections for retinal tissue marker Chx10. It counts as cell-based. The text has this:
Cell aggregates on day 16 after the start of suspension culturing were fixed with 4% para-formaldehyde to prepare frozen sections. These frozen sections were immunostained for Chx10 (anti-Chx10 antibody, Exalpha, sheep), which is one of the retinal tissue markers. These immunostained sections were observed under a fluorescence microscope.
Cell aggregates on day 16 after the start of suspension culturing were fixed with 4% para-formaldehyde to prepare frozen sections. These frozen sections were immunostained for Chx10 (anti-Chx10 antibody, Exalpha, sheep), which is one of the retinal tissue markers, and observed under a fluorescence microscope. […] In addition, the proportion of Chx10-positive cells in the total cells is about 80% under conditions with the addition of BMP4 twice to maintain the final concentration of 5 nM (FIG. 23, D)
The cell aggregates on day 19 after the start of suspension culturing were fixed with 4% para-formaldehyde to prepare frozen sections. These frozen sections were immunostained for Chx10 (anti-Chx10 antibody, Exalpha, sheep), which is one of the retinal tissue markers. These immunostained sections were observed under an inverted fluorescence microscope. As a result, the proportion of Chx10-positive cells in the total cells is about 70% under conditions with the addition of BMP4 twice to maintain the final concentration of 1.5 nM ([…]). In addition, the proportion of Chx10-positive cells in the total cells is about 90% under conditions with the addition of BMP4 twice to maintain the final concentration of 5 nM (FIG. 34, D).
The thus-prepared cell aggregates on day 19 after the start of suspension culturing were fixed with 4% para-formaldehyde to prepare frozen sections. These frozen sections were immunostained for Chx10 (anti-Chx10 antibody, Exalpha, sheep), which is one of the retinal tissue markers, and observed under a fluorescence microscope.

Experiment [2] shares this test system. Put plainly: Neural tissue / neuroepithelium formation in cell aggregates, bright field observation. In kind it is cell-based. On the procedure: At the time of the start of suspension culturing (day 0 after the start of suspension culturing, […]), Y27632 ([…]) were added to the above serum-free medium (FIG. 22). By day 2 after the start of suspension culturing, a cell aggregate was formed (step 2 completed, step 3 start) under any conditions. On day 3 or later from the start of suspension culturing, BMP4 was added under 3 conditions including the following conditions 1-3. • Condition 1: (+BMP4 addition once) On day 3 of suspension culturing, a medium (50 μl) free of Y27632 and SAG, and containing human recombinant BMP4 (manufactured by R&D) was added such that the final concentration of exogenous human recombinant BMP4 was 1.5 nM (55 ng/ml). On day 6 or later from the start of suspension culturing, a half amount of the medium was changed to a serum-free medium free of Y27632, SAG and human recombinant BMP4. • Condition 2: (+BMP4 addition twice) On day 3 of suspension culturing, a medium (50 μl) free of Y27632, SAG and containing human recombinant BMP4 (manufactured by R&D) was added such that the final concentration of exogenous human recombinant BMP4 was 1.5 nM (55 ng/ml). On day 6 from the start of suspension culturing, 50 μl of the medium was discarded, and 50 μl of a medium free of Y27632 and SAG and containing human recombinant BMP4 (manufactured by R&D) was added to maintain the final concentration of exogenous human recombinant BMP4 at 1.5 nM (55 ng/ml). On day 9 or later from the start of suspension culturing, a half amount of the medium was changed with a serum-free medium free of Y27632, SAG, and human recombinant BMP4. • Condition 3: (+BMP4 addition three times) On day 3 of suspension culturing, a medium (50 μl) free of Y27632, SAG and containing human recombinant BMP4 (manufactured by R&D) was added such that the final concentration of exogenous human recombinant BMP4 was 1.5 nM (55 ng/ml). On days 6 and 9 from the start of suspension culturing, 50 μl of the medium was discarded, and 50 μl of a medium free of Y27632 and SAG and containing human recombinant BMP4 (manufactured by R&D) was added to maintain the final concentration of exogenous human recombinant BMP4 at 1.5 nM (55 ng/ml). On day 12 or later from the start of suspension culturing, a half amount of the medium was changed with a serum-free medium free of Y27632, SAG and human recombinant BMP4. […]
On day 3 after the start of suspension culturing, a medium (50 μl) free of Y27632 and SAG, and containing human recombinant BMP4 (manufactured by R&D) was added such that the final concentration of exogenous human recombinant BMP4 was 1.5 nM (55 ng/ml) or 5 nM (183 ng/ml). […]

B1: BMP4: human recombinant BMP4 (manufactured by R&D), BMP signal transduction pathway activating substance (protein, UniProt P12644 293-408, looked up)
Bone morphogenetic protein 4: SPKHHSQRARKKNKNCRRHSLYVDFSDVGWNDWIVAPPGYQAFYCHGDCPFPLADHLNSTNHAIVQTLVNSVNSSIPKACCVPTELSAISMLYLDEYDKVVLKNYQEMVVEGCGCR
Turning to B1, the “proportion of Chx10-positive cells in the total cells” value in experiment [1] (SAG 300 nM 2 days in step 1, SAG 300 nM in step 2, BMP4 1.5 nM added 2 or 3 times, day 16) was “about 80%”; in experiment [1] (SAG 300 nM 2 days in step 1, SAG 300 nM in step 2, BMP4 1.5 nM added once (day 3), day 16) it was “about 60%”; in experiment [1] (StemFit AK03, SAG 300 nM 2 days in step 1, SAG 1000 nM in step 2, BMP4 added twice to maintain 1.5 nM, day 16), “about 70%”; in experiment [1] (StemFit AK03, SAG 300 nM 2 days in step 1, SAG 1000 nM in step 2, BMP4 added twice to maintain 5 nM, day 16), “about 80%”; in experiment [1] (StemFit AK03N, SAG 300 nM 2 days in step 1, SAG 500 nM in step 2, BMP4 added twice to maintain 1.5 nM, day 19), “about 70%”; in experiment [1] (StemFit AK03N, SAG 300 nM 2 days in step 1, SAG 500 nM in step 2, BMP4 added twice to maintain 5 nM, day 19), “about 90%”. The “cell aggregate and neural tissue formation” value in experiment [2] (SAG 300 nM 2 days in step 1, SAG 300 nM in step 2, BMP4 1.5 nM added 1, 2 or 3 times in step 3, day 16) is given as “a neural tissue could be formed efficiently”; in experiment [2] (SAG 300 nM 2 days in step 1, SAG 1000 nM in step 2, BMP4 at 1.5 nM and 5 nM in step 3, day 16), “a neural tissue could be formed efficiently”; in experiment [2] (StemFit AK03N, SAG 300 nM 2 days in step 1, SAG 500 nM in step 2, BMP4 at 1.5 nM or 5 nM, day 19) it was “a neural tissue can be formed efficiently”.
